{"source": "the nanobody polyreactivity screen of Harvey et al. (2022)", "data": [{"assay": "yeast display, Sf9 membrane polyspecificity reagent, FACS + sequencing; frameworks hold sequencing errors", "how_it_was_run": "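Galactose induction of a Saccharomyces cerevisiae BJ5465 synthetic nanobody display library ran 36–48 hours. The cells were then stained for 1 hour at 4 °C with 10% biotinylated, detergent-solubilized Sf9 membrane reagent, pulled down on streptavidin microbeads and FACS-sorted into low and high (top ~1%) gates on expression and reagent-binding fluorescence. Labels for polyreactivity follow the gate of origin.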", "values": [{"sequence": "QVQLEESGGGLVQAGGSLRLSCAASGFTFNLYTMGWYRQAPGKERELVAAISRSGDRTYYADSVKGRFTISRDNAKNTVYLQMNSLKPEDTAVYYCAARSYRPTRGDYWGQGTQVTVSS", "polyreactivity (PSR sort gate)": "high polyreactivity"}, {"sequence": "QVQLEESGGGLVQAGGSLRLSCAASGFTFSLYAMGWYRQAPGKERELVAAISTSGGSTYYADSVKGRFTISRDNAKNTVYLQMNSLKPEDTAVYYCAATTVYSRAYYYVTYWYGYWGQGTQVTVSS", "polyreactivity (PSR sort gate)": "low polyreactivity"}, {"sequence": "QVQLEESGGGLVQAGGSLRLSCAASGFTFYGNAMGWYRQAPGKERELVATIRYRGGRTYYADSVKGRFTISRDNAKNTVYLQMNSLKPEDTAVYYCNRVGYQYGSDQEDDYWGQGTQVTVSS", "polyreactivity (PSR sort gate)": "high polyreactivity"}, {"sequence": "QVQLEESGGGLVQAGGSLRLSCAASGFTIIRYAMGWYRQAPGKERELVATISRRGASTYYADSVKGRFTISRANAKNTVYLQMNSLKPEDTAVYYCAKRTYSRKFRGAYNYWGQGTQVTVSS", "polyreactivity (PSR sort gate)": "high polyreactivity"}, {"sequence": "QVQLEESGGGLVQAGGSLRLSCAASGFTISYYAMGWYRQAPGKERELVAAISSSGGSTYYADSVKGRFTISRDNAKNTVYLQMNSLKPDDTAVYYCAAGWPEYLRDGDYWGQGTQVTVSS", "polyreactivity (PSR sort gate)": "low polyreactivity"}, {"sequence": "QVQLEESGGGLVQAGGSLRLSCAASGIIFAANAMGWYRQAPGKERELVAAISKNGGITYYADSVKGRFTISRDNAKNTVYLQMNSLKPEDTAVYYCAARWRQTRRYYYWGQGTQVTVSS", "polyreactivity (PSR sort gate)": "high polyreactivity"}, {"sequence": "QVQLEESGGGLVQAGGSLRLSCAASGIIFIDYAMGWYRQAPGKERELVAAISNGGSTYYADSVKGSFTISRDNAKNTVYLQMNSLKPEDTEVYYCAAGGALASHWSKKLYDYWGQGTQVTVSS", "polyreactivity (PSR sort gate)": "low polyreactivity"}, {"sequence": "QVQLEESGGGLVQAGGSLRLSCAASGIIFPVYAMGWYRQAPGKERELVAAITRSGGITYYADSVKGRFTISRDNEKNTVYLQMNSLKPEDTAVYDCAASVYSLSRRSWMDYWGQGTQVTVSS", "polyreactivity (PSR sort gate)": "low polyreactivity"}, {"sequence": "QVQLEESGGGLVQAGGSLRLSCAASGIIFQRNDMGWYRQAPGKERELVANIRDGGITYADSVKGRFTISRDNAKNTVYLQMNSLKPEDTAVYYCARDDTSPGYCDQSSNAAYYYWGQGTQVTVSS", "polyreactivity (PSR sort gate)": "low polyreactivity"}, {"sequence": "QVQLEESGGGLVQAGGSLRLSCAASGIIFRGNAMGWYIQAPGKERELFAAIRFSGGSTYYADSVKGRFTISRDNAKNTVYLQMNSLKPEDTAVYYCAATRRRYGSTTSEYYYWGQGTQVTVSS", "polyreactivity (PSR sort gate)": "high polyreactivity"}, {"sequence": "QVQLEESGGGLVQAGGSLRLSCAASGIIFTTYDMGWYRQATGKERELVAAISSSTTNTYYADSVKGRFTISRDNAKNTVYLQMNSLKPEDTAVYYCAAPYKRNAGFDYWGQGTQVTVSS", "polyreactivity (PSR sort gate)": "low polyreactivity"}, {"sequence": "QVQLEESGGGLVQAGGSLRLSCAASGIIFWEYAMGWYRQAPGKERELVAAINARGTRTYYADSVKGRFSISRDNAKNTVYLQMNSLKPEDTAVYYCAADRYGWTRYDSWGQGTQVTVSS", "polyreactivity (PSR sort gate)": "high polyreactivity"}, {"sequence": "QVQLEESGGGLVQAGGSLRLSCAASGIIIKYYAMGWYSQAPGKESELVAAISSSGGKTYYADSVKGRFTISRDNAKNTVYLQMKSLKPEDTGVDYCAAQRYVRYKYDYWGQGTQVTVSS", "polyreactivity (PSR sort gate)": "high polyreactivity"}, {"sequence": "QVQLEESGGGLVQAGGSLRLSCAASGITFGFYAMGWYRQAPGKERELVASITWRGGSTYYADSVKGRFTISRVNAKNTVYLHMNSLKPEDTAVYYCAAEQYVFRPRAQEITSYDYWGQGTQVTVSS", "polyreactivity (PSR sort gate)": "high polyreactivity"}, {"sequence": "QVQLEESGGGLVQAGGSLRLSCAASGITFISYAMGWYRQAPGKERELVAVISKSGGRTYYADSVKGRFTISRDNAKNTVYLQMNSLKPEDTAVYYCAATKRYASGMYYWGQGTQVTVSS", "polyreactivity (PSR sort gate)": "high polyreactivity"}, {"sequence": "QVQLEESGGGLVQAGGSLRLSCAASGITFVTYAMGWYRQAPGKERELVAAISRSGGRTYYADSVKGRFTISRDNAKNTVYLQMNSLKPDDTAVYYCAAERKNKYDYWVQGTQVTVSS", "polyreactivity (PSR sort gate)": "high polyreactivity"}, {"sequence": "QVQLEESGGGLVQAGGSLRLSCAASGLIFPVYAMGWYRQAPGKERELVASISWNGGSTYYADSVKGRFTISRDNAKNTVYLQMNSLKPEDTAVYYCNKYPVSLWYYSKDYTYDYWGQGTQVTVSS", "polyreactivity (PSR sort gate)": "low polyreactivity"}, {"sequence": "QVQLEESGGGLVQAGGSLRLSCAASGLISSPNAMGWYRQAPGKERELVAAITRRGGSTYYADSVKGRFTISRDNAMNTVYLQINSLKPEDTAVYYCAKATGRPGYDYWGQGTQVTVSS", "polyreactivity (PSR sort gate)": "high polyreactivity"}, {"sequence": "QVQLEESGGGLVQAGGSLRLSCAASGLTFDPYAMGWSRQAPGKERELVAVITSRTGSTYYADSVKGRFTISRDNAKNTVYLQMNSLKPEDTAVYYCAAEIYYYGMYGYDYWGQGTQVTVSS", "polyreactivity (PSR sort gate)": "high polyreactivity"}, {"sequence": "QVQLEESGGGLVQAGGSLRLSCAASGLTFRIYAMGWYRQAPGKERELVATISTRGGSTYYADSVKGRFTISRDNPKNTVYLQMNSLQPEDTAVYYCAASLGWFSGSLYNYWGQGTQVTVSS", "polyreactivity (PSR sort gate)": "high polyreactivity"}, {"sequence": "QVQLEESGGGLVQAGGSLRLSCAASGLTFVRYAMGWYRQAPGKERELVAAISSGGSTNYADSVKGRVTISRDNAKNTVYLQMNSLKPEDTAVYYCAARPPRTYWRYQSDYWGQGTQVTVSS", "polyreactivity (PSR sort gate)": "high polyreactivity"}, {"sequence": "QVQLEESGGGLVQAGGSLRLSCAASGRIFAYYAMGLYRQAPGKERELVAAITTNGGGTYYADSVKGRFTISRDNAKNTVYLQMNSLKPEDTAVYYCNAVKQRSSFYDYWGQGTQVTVSS", "polyreactivity (PSR sort gate)": "low polyreactivity"}, {"sequence": "QVQLEESGGGLVQAGGSLRLSCAASGRIFGAYAMGWYRQAPGKERELVAAITSRGGNTYYADSVKGRFTISRDNAKNTVYLQMNSLKPEDTAVYYCAARHDKRRQYYVGESAFDYWGQGTQVTVSS", "polyreactivity (PSR sort gate)": "low polyreactivity"}, {"sequence": "QVQLEESGGGLVQAGGSLRLSCAASGRIFGWYALGWTRQAAGKESELVAAISNDGSTNYADSVKGRFTSSRDNAKNTVYLQLNSVKPEDTAVSYCNARVYSSRARWGTYDYWGQGNQVTVSS", "polyreactivity (PSR sort gate)": "high polyreactivity"}, {"sequence": "QVQLEESGGGLVQAGGSLRLSCAASGRIFKGYAMGWYRQATGKETEVVAAISSRGGNTYYADSVKGRFTISRDNAKNTVYLQMNSLKPVDTAVYYCAAVYKWSRYGGYNYWGQGTQVTVSS", "polyreactivity (PSR sort gate)": "low polyreactivity"}, {"sequence": "QVQLEESGGGLVQAGGSLRLSCAASGRIFRSYAMGWYRQAPGKERELVAAISQRGGRTYYADSVKGRFTISRDNAKNTVYLQMNSLKPEDTAVYYCAKSNPKLGYYYLQGDLYDYWGQGTQVTVSS", "polyreactivity (PSR sort gate)": "low polyreactivity"}, {"sequence": "QVQLEESGGGLVQAGGSLRLSCAASGRIFRYYAMGWSRQAPGKERELVAGISRGTSTYYADSVKGRFTISRDNAKNTVYLQMNSLKPEDTAVYYCAKGSIQYFRPYTFYSWGQGTQVTVSS", "polyreactivity (PSR sort gate)": "high polyreactivity"}, {"sequence": "QVQLEESGGGLVQAGGSLRLSCAASGRIFSRYAMGGYRQAPGKERELVAAITQSGTSTYYADSVKGRFTISRDNAKNTVYLQMNSLKPEDTAVYYCNAYRQYRYDYWGQGTQVTVSS", "polyreactivity (PSR sort gate)": "low polyreactivity"}, {"sequence": "QVQLEESGGGLVQAGGSLRLSCAASGRIFVNYDMGSDRQAPGKERELVADISISGSTDYADSVKGRFTISRDNAKNTVYLQMNSLKPEDTAVYYCATSFYVSDYYVPYEMGYWGQGTQVTVSS", "polyreactivity (PSR sort gate)": "low polyreactivity"}, {"sequence": "QVQLEESGGGLVQAGGSLRLSCAASGRIFVSNAMGWYRQAPGKERELVAAITDSGGSTYYADSVKGRFTISRDNAKNTVYLQMNSLKPEDTAVYYCATRTLFRYPNYGNNLWGYDYWGLGTQVTVSS", "polyreactivity (PSR sort gate)": "low polyreactivity"}, {"sequence": "QVQLEESGGGLVQAGGSLRLSCAASGRIFYQNAMGWYRQAPGKERQLVADIASGGSTSYADSVKGRFTISRDNAKNTVYIQMNSLKPEDTAVYYCATAVLYGDGWYYYWGQGTQVTVSS", "polyreactivity (PSR sort gate)": "low polyreactivity"}, {"sequence": "QVQLEESGGGLVQAGGSLRLSCAASGRIIGGYAMGWYRQAPGKERELVAGIRGGTSTYYADSVKGRFTISRDNAKNTVYLQMNSQKPEDTAVYYCNARSLGRKYDYWGQGTQVTVSS", "polyreactivity (PSR sort gate)": "low polyreactivity"}, {"sequence": "QVQLEESGGGLVQAGGSLRLSCAASGRIIQQYAMGWSRQAPGKDRELVAAISRGGSTYYADSEKGRFTISRDNAKNTVYLLMYSLKPEDTAVYDCNAGVGFTSAPQKYYYWGEGTQVTVSS", "polyreactivity (PSR sort gate)": "high polyreactivity"}, {"sequence": "QVQLEESGGGLVQAGGSLRLSCAASGRIQYNAMGWYRQAPGKEREFVAAISWSGGTTYYADSVKGRFTISRDNAKNTVYLQMNSLKPEDTAVYYCATPYTHWGQGTQVTVSS", "polyreactivity (PSR sort gate)": "high polyreactivity"}, {"sequence": "QVQLEESGGGLVQAGGSLRLSCAASGRLFYSNPMGWYREAPGKEREVVAAISSGASTYYADSVKGRFTISRDNAKNTVYLQMNSLKPEDTAVYYCAVYRPSSYDYGYWGQGTQVTVSS", "polyreactivity (PSR sort gate)": "low polyreactivity"}, {"sequence": "QVQLEESGGGLVQAGGSLRLSCAASGRNLEVYAMGWNRKAPGKERELVAAIRWSDGNTYYADSVKGRFTISRDIAKNTVYLQMNSLKPEDTAVYYCAARTPGGYDWGQGTQVTVSS", "polyreactivity (PSR sort gate)": "high polyreactivity"}, {"sequence": "QVQLEESGGGLVQAGGSLRLSCAASGRTFDYYAMGWYRQAPGKERELVAAIRLISGNTYYADSVKGRFTISRDNAKNTVYLQMNSLKPEDTAVYYCAAPSDGVPSLYGGMDYWGQGTQVTVSS", "polyreactivity (PSR sort gate)": "low polyreactivity"}, {"sequence": "QVQLEESGGGLVQAGGSLRLSCAASGRTFGLNAMGWYRQAPGKERELVAAITYSGGSTYYADSVKGRCTISRDNAKNTVYLHMNSLKPEDTAVYYCAKEVQTYWYHYYYWGHGTQVTVSS", "polyreactivity (PSR sort gate)": "high polyreactivity"}, {"sequence": "QVQLEESGGGLVQAGGSLRLSCAASGRTFGTYVMGWNRQATGKHRELVAAISRSGGGTYYADSVKGRFTISRDNEKNTVYLQMNSLKPEDTAVYYCADRRVVYRYYWYSAYDYWGQGTQVTVSS", "polyreactivity (PSR sort gate)": "high polyreactivity"}, {"sequence": "QVQLEESGGGLVQAGGSLRLSCAASGRTFKYYSMGWYRPAPGKERELVAAIRSRTGSTYYADSVKGRFTISRDNAKNTVYLQMNSLKPEDTAVYYCAAQPGSYYGPRWYYDDDYWGQGTQVTVSS", "polyreactivity (PSR sort gate)": "high polyreactivity"}, {"sequence": "QVQLEESGGGLVQAGGSLRLSCAASGRTFRSYTMGWYRQAPGKERELGAAISYNGGSTYYADSVNGRFTISRDYAKNTVYLQMNSLKPEDTSVYYCAVYSIYGFYYWGQGTQVTVSS", "polyreactivity (PSR sort gate)": "high polyreactivity"}, {"sequence": "QVQLEESGGGLVQAGGSLRLSCAASGRTFSRYAMGWYRQAPGKERELVAAIRGNSGNTYYADSVKGRFTISRDNAKNTVYLQMNSLKPEDTAVYYCAKPFNIWGQGTQVTVSS", "polyreactivity (PSR sort gate)": "high polyreactivity"}, {"sequence": "QVQLEESGGGLVQAGGSLRLSCAASGRTFTHYAMGWYRQAPGRERELVAGITRSGGITYYADSVKGRFTISRDNANNTVYLQMNSLKPEDTAVYYCNAGFHGLAYFLKPEYDYWGQGTQVTVSS", "polyreactivity (PSR sort gate)": "low polyreactivity"}]}]}
